Laboratory results as given in article PMC2995306 (Science (New York, N.Y.), 2009).
Where a chain is given by its changes, count along the chain named. Read-outs that look alike come from different tables or passages of the source.

B1: rhesus rotavirus (RRV, serotype G3) VP7 trimer, recombinant (natural protein, UniProt P12476 51-326, looked up)
chain: QNYGINLPITGSMDTAYANSTQEETFLTSTLCLYYPTEAATEINDNSWKDTLSQLFLTKGWPTGSVYFKEYTDIASFSVDPQLYCDYNVVLMKYDATLQLDMSELADLILNEWLCNPMDITLYYYQQTDEANKWISMGSSCTIKVCPLNTQTLGIGCLTTDTATFEEVATAEKLVITDVVDGVNHKLDVTTATCTIRNCKKLGPRENVAVIQVGGSDVLDITADPTTAPQTERMMRINWKKWWQVFYTVVDYVNQIIQAMSKRSRSLNSAAFYYRI
modifications: N-linked glycan at Asn69
B2: disulfide-linked variant of the VP7 trimer (cysteines substituted for Thr276 and Gln305) (natural protein, rhesus rotavirus (RRV, serotype G3), UniProt P12476 51-326, looked up)
chain: B1 chain with T226C, Q255C
modifications: intersubunit disulfide between the cysteines at 276 and 305

Experiments:
crystal structure = biological target: the molecule itself; test: crystal structure
[1] = biological target: the molecule itself

Row | Protein | stoichiometry N (crystal structure) | stoichiometry N [1]
1 | B1 | 3 | –
2 | B2 | – | 3
